Test results reported in patent US20220162331A1 (CHENGDU CONMED BIOSCIENCES, published 2022).
Read-outs that look alike come from different tables or passages of the source. One block for each binder: values may come before it.

Tests used:
[1] = target: T1, human CD73 on Calu6 cells (human, UniProt P21589 27-549); assay: FACS on Calu6 cells
T1 construct: whole, on cells; Endogenous CD73 of the Calu6 cell line; also called CD73 on cell membrane surface
T1 sequence (looked up): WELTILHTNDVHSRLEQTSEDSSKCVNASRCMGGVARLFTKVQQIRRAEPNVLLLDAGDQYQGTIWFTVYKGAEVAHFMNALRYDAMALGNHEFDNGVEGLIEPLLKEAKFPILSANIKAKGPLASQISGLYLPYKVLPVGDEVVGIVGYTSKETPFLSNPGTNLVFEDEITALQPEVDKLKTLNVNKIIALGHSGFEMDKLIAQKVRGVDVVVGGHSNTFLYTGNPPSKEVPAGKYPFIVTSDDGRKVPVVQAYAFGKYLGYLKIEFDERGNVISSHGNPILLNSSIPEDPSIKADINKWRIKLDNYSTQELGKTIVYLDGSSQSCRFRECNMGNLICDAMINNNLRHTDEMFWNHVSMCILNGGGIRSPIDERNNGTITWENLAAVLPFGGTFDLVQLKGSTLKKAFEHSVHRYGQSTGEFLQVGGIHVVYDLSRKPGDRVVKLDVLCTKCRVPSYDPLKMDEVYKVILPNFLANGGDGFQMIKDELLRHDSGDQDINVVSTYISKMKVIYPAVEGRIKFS

[2] = target: T1, human CD73 on Calu6 cells; assay: cell-based or functional assay
[3] = target: T1, human CD73 on Calu6 cells; assay: cell-based or functional assay; remark: listed apart in the source
[4] = target: T2, recombinant human CD73 extracellular domain (Trp27-Lys546) with C-terminal 6-histidine tag (human, UniProt P21589 27-547); assay: cell-based or functional assay
T2 sequence: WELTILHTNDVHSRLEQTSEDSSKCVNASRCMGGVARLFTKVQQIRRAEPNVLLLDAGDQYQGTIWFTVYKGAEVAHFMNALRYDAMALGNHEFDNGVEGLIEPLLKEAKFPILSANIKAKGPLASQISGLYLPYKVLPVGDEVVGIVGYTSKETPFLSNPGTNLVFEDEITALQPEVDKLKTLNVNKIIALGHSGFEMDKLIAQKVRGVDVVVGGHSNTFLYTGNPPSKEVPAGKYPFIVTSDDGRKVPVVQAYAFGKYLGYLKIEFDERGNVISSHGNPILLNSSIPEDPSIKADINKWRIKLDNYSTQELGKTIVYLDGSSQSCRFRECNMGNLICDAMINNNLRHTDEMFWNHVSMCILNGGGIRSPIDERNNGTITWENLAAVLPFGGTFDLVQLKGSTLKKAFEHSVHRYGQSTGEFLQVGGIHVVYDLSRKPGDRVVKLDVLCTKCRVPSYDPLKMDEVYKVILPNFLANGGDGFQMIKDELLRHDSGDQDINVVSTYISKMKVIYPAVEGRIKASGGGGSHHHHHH

[5] = target: T2, recombinant human CD73 extracellular …; assay: ELISA, plate coated with recombinant CD73 extracellular domain
[6] = target: T3, recombinant cynomolgus monkey CD73 extracellular domain (Trp27-Lys546) (cynomolgus monkey, UniProt P21589 27-547 (human entry)); assay: as above
T3 construct: also called cynoCD73; recombinant monkey CD73 extracellular domain
T3 chain: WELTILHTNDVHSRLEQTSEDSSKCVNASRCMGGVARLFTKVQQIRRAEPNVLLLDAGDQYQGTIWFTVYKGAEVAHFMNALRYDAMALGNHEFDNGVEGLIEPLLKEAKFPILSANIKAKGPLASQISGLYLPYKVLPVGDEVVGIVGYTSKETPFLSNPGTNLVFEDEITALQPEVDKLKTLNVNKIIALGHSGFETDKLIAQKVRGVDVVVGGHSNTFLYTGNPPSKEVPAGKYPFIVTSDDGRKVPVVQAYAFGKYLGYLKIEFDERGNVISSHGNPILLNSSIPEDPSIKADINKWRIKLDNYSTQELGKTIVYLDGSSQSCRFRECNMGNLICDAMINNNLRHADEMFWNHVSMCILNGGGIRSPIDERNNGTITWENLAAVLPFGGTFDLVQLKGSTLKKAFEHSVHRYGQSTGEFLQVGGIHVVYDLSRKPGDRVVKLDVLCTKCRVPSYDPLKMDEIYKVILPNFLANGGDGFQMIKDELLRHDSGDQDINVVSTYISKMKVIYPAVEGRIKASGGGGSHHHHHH

[7] = target: T4, human full-length CD73 on hCD73-CHO-1C11 cells (human, UniProt P21589 27-549); assay: FACS on CHO-CD73-1C11 cells
T4 construct: it may be a nucleotide entry; also called CHO-CD73-1C11
T4 sequence: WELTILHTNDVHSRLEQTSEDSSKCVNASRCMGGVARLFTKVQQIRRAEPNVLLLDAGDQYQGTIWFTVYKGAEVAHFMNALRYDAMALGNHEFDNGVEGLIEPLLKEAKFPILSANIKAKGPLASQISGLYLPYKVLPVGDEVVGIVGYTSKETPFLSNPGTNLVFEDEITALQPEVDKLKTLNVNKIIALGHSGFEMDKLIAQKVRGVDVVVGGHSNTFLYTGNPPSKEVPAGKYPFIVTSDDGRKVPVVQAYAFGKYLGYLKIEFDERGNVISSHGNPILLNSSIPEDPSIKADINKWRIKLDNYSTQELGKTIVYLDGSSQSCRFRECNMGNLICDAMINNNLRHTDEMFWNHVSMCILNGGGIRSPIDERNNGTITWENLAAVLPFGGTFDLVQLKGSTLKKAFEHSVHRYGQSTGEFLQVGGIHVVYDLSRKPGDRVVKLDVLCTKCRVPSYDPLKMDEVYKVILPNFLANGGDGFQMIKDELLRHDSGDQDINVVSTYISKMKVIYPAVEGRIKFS

[8] = target: T2, recombinant human CD73 extracellular …; assay: SPR, Biacore T200, antibody captured on Protein A chip, hCD73 ECD as analyte, 1:1 Langmuir
Method: The affinity of CD73 antibody was determined by plasma surface resonance on Biacore T200. At room temperature, the antibody concentration was diluted to 0.5 μg/mL with 1×HBS-EP buffer (prepared from HBS-EP+Buffer 10×, GE, BR1008-26), the Protein A chip (GE, 29-1275-56) was coated with a flow rate of 10 μL per minute, the capture time was about 40 seconds, and the coated RU value was controlled to be about 100 RU. The recombinant human CD73 extracellular domain protein was diluted to 3 μg/mL with 1×HBS-EP buffer, diluted to two-fold gradient, a total of 6 concentrations, 200 μL of each concentration gradient. The 1×HBS-EP buffer was used as a control, the flow rate was 30 μl/min, the binding time was 120 seconds, and the dissociation time was 600 seconds. The affinity was fitted using Langmuir 1:1 Kinetic theoretical model and analyzed by Biacore T200 Evaluation Software (Table 3).

[9] = target: T1, human CD73 on Calu6 cells; assay: cell-based or functional assay; remark: listed apart in the source
[10] = target: T1, human CD73 on Calu6 cells; assay: cell-based or functional assay; remark: listed apart in the source

EC50 [1]: 1.03 nM | CD73 endocytosis ratio %, 30 minutes [2]: 17.1% | CD73 endocytosis ratio %, 60 minutes [2]: 38.5% | CD73 endocytosis ratio %, 120 minutes [2]: 22.2% | CD73 endocytosis ratio %, 240 minutes [2]: 35.3% | CD73 endocytosis ratio %, 480 minutes [2]: 47.7% | Inhibition of CD73 enzyme activity IC50(nM), Calu6 [3]: 1.72 nM | Inhibition of CD73 enzyme activity IC50(nM), Soluble CD73 [4]: 1.03 nM | EC50 [5]: 0.02 nM | EC50 [6]: 0.02 nM | EC50 [7]: 1.91 nM | Kd [8]: 0.18 nM | koff [8]: 0.000111 s⁻¹ | kon [8]: 617000 M⁻¹ s⁻¹
B1: CD73 antibody 6G8 (chimeric) (antibody, V domains shown)
VH: QVTLKESGPGILKPSQTLSLTCSFSGFSLNTSGMGVGWIRQPSGKGLEWLAHIWWDDDKYYNPSLKSQLTISKDTSRNQVFLRIASVDTADTATYYCARRERWAWFAYWGQGTLVTVSA
VL: DIVMTQSQKFMSASVGDRVSVTCKASQNVFTNVAWYQQKPGQSPKVLIYSASYRYSGVPDRFTGSGSGTDFTLTINNVQSEDLAEYFCQQYNSYPTFGSGTKLEIK
notes: Mouse variable regions on human IgG heavy chain constant region and human kappa constant region (chimeric IgG); also called Clone 6G8; 6G8 Chimera

CD73 endocytosis ratio %, 0 minute [9]: 0% | CD73 endocytosis ratio %, 30 minutes [9]: 28% | CD73 endocytosis ratio %, 120 minutes [9]: 31% | CD73 endocytosis ratio %, 240 minutes [9]: 46%
B2: control antibody 11F11-huG1 (antibody, from another filing, human IgG1, V domains shown)
VH: QVQLVESGGGVVQPGRSLRLSCATSGFTFSNYGMHWVRQAPGKGLEWVAVILYDGSNKYYPDSVKGRFTISRDNSKNTLYLQMNSLRAEDTAVYYCARGGSSWYPDSFDIWGQGTMVTVSS
VL: DIQMTQSPSSLSASVGDRVTITCRASQGISSWLAWYQQKPEKAPKSLIYAASSLQSGVPSRFSGSGSGTDFTLTISSLQPEDFATYYCQQYNSYPLTFGGGTKVEIKR

CD73 endocytosis ratio %, 0 minute [10]: 0% | CD73 endocytosis ratio %, 30 minutes [10]: 28% | CD73 endocytosis ratio %, 120 minutes [10]: 37% | CD73 endocytosis ratio %, 240 minutes [10]: 46% | Kd [8]: 0.257 nM | koff [8]: 8.48e-05 s⁻¹ | kon [8]: 330000 M⁻¹ s⁻¹
B3: humanized anti-CD73 antibody 6G8 VH-v8/VK-v4 (antibody, V domains shown)
VH: QVTLRESGPALVKPTQTLTLTCTFSGFSLSTSGMGVGWIRQPPGKALEWLAHIWWDEDKYYNPSLKSRLTISKDTSKNQVVLTMTNMDPVDTATYYCARRERWAWFAYWGQGTLVTVSS
VL: EIVMTQSPATLSVSPGERATLSCRASQNVFTNVAWYQQKPGQAPRVLIYSASYRYSGIPARFSGSGSGTEFTLTISSLQSEDFAVYFCQQYNSYPTFGQGTKLEIK
notes: Human IgG1 CH1-CH3 constant region and kappa constant region; also called hu6G8 VHv8 + hu6G8 VkV4
